These results are taken from publication PMC5750235.

One experiment concerns the target IgE Fc Cε2–4 (human). Briefly: SPR; Biacore T200; IgE Fc immobilized (110 RU) on CM5 by NHS/EDC; 026 sdab injected 0.003-50 µg/ml, 25 µl/min; 25 °C; 10 mM monosodium phosphate, 40 mM disodium phosphate, 100 mM NaCl, pH 7.4, 0.01% Tween-20; 1:1 binding model. Background: SPR reads the build-up and loss of mass on a sensor chip optically.
Experiment [1] concerns the target IgE on the surface of patients' basophils (human (endogenous in patients' blood)). The experiment can be described thus: flow cytometry on cells; EDTA blood of allergic donors preincubated with 026 sdab (0 to 45 µmol/l) for up to 60 min in IL-3-containing stimulation buffer; remaining surface IgE on basophils stained with anti-IgE-FITC. (A flow cytometer gives signals particle by particle.)

Sequence of IgE on the surface of patients' basophils (human (endogenous in patients' blood)) (P01854 whole entry): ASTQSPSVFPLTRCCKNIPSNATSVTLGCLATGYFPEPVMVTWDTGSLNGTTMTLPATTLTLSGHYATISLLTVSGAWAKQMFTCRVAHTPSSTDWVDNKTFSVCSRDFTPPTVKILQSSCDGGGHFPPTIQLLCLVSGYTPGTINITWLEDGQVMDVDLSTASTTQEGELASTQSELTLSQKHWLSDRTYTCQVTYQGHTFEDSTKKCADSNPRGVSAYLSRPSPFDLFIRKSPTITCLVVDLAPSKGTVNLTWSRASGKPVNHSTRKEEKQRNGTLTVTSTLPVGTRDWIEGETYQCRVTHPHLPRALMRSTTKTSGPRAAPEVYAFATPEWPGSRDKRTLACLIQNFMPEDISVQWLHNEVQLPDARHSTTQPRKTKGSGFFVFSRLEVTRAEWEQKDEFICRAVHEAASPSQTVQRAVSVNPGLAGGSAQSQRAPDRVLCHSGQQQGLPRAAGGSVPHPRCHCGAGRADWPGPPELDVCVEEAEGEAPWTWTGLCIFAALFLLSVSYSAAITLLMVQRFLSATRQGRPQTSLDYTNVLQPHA

B1: 026 sdab (VHH)
VHH: EVQLLESGGGLVQPGGSLRLSCAASGFTFGNYDMAWVRQAPGKRPEWVSSIDTGGDITHYADSVKGRFTISRDNAKNTLYLQMNSLRPEDTAVYWCATDEEYALGPNEFDYYGQGTLVTVSS
The term Kd denotes the constant that tells how readily two partners part at equilibrium. Low readings indicate tighter binding, high ones weaker binding. Turning to B1, the Kd in the experiment with IgE Fc Cε2–4 (human) was determined as 1.4 nM. In experiment [1], the surface IgE left on basophils after 15 min with 026 sdab stood at 30% and the surface IgE left on basophils after prolonged incubation with 026 sdab was found to be 20%.
